B1: H3v-47 Fab (Fab, V domains shown)
VH: QVQLVQSGAEVKKPGSSVRVSCKASGDTFSSYSITWVRQAPGHGLQWMGGIFPIFGSTNYAQKFDDRLTITTDDSSRTVYMELTSLRLEDTAVYYCARGASKVEPAAPAYSDAFDMWGQGTLVTVSS
VL: DIVMTQSPGTLSLSPGERATLSCRTSQGVSSSYLAWYQQKPGQAPRLLISGSSSRATGIPDRFSGSGSGRDFTLTISRLEPEDSAVYYCQQYATSPTFGQGTRVEIK
B2: H3v-47 IgG (antibody, V domains shown)
VH: B1 VH
VL: B1 VL

Legend:
Assay in all cases: BLI
[1] = target: A/Panama/2007/1999 H3N2 HA, soluble trimeric (influenza A virus A/Panama/2007/1999 …)
[2] = target: HA of A/Brisbane/10/2007 (H3N2) virus (influenza A virus A/Brisbane/10/2007 …)
[3] = target: A/Minnesota/11/2010 H3N2v HA, soluble, biotinylated (wild type) (influenza A virus A/Minnesota/11/2010 …)

| Binder | Kd [1] [nM] | Kd [2] [nM] | Kd [3] [nM] |
| --- | --- | --- | --- |
| B1 | < 5 | < 5 |  |
| B2 |  |  | < 0.001 |

From PMC6039445 (2018)
